What all share (assay): malachite green Pi release
Holding throughout (assay type): biochemical, Arabidopsis thaliana
Holding throughout (conditions): pH 7.2, 30 °C, 100 mM KCl, 0.8 mM MgCl2

Substrate in data set [1]: O=P(O)(O)O[C@H]1[C@@H](OP(=O)(O)O)[C@H](OP(=O)(O)O)[C@@H](OP(=O)(O)OP(=O)(O)O)[C@H](OP(=O)(O)O)[C@H]1OP(=O)(O)O
Substrate in data set [2]: O=P(O)(O)O[C@@H]1[C@@H](OP(=O)(O)O)[C@H](OP(=O)(O)OP(=O)(O)O)[C@@H](OP(=O)(O)O)[C@H](OP(=O)(O)OP(=O)(O)O)[C@@H]1OP(=O)(O)O
Substrate in data set [3]: O=P(O)(O)O[C@@H]1[C@@H](OP(=O)(O)OP(=O)(O)O)[C@H](OP(=O)(O)O)[C@@H](OP(=O)(O)O)[C@@H](O)[C@H]1OP(=O)(O)O

B1: AtPFA-DSP1 (full-length) (Arabidopsis thaliana) (protein)
chain: MKLVEKTTTTEQDNGEDFCRTIIEVSEVNRNVFQAPGGEADPFRVVSGEELHLIPPLNFSMVDNGIFRSGFPDSANFSFLQTLGLRSIIYLCPEPYPESNLQFLKSNGIRLFQFGIEGNKEPFVNIPDHKIRMALKVLLDEKNHPVLIHCKRGKHRTGCLVGCLRKLQKWCLTSIFDEYQRFAAAKARVSDQRFMEIFDVSSFSHIPMSFSCSIR
notes: full-length (codon-optimized cDNA, Genscript); pDest-566, N-terminal 6xHis-MBP tag cut with TEV protease; E. coli
What is called Km is the substrate concentration at which the rate is half of its maximum. As to B1, the Km in data set [1] stood at 60 µM; in data set [2], 44 µM; in data set [3], 78 µM.
